This note sets out measurements from patent publication US20190389958A1 (MSM PROTEIN TECHNOLOGIES, published 2019).

One experiment concerns the target human CXCR4 (human, UniProt P61073 1-352). The experiment is described as follows: cell-based or functional assay.
For another experiment, the target named is T1, hCCR3 (human, UniProt P51677 1-355).
T1 construct: whole, on cells
T1 sequence (looked up): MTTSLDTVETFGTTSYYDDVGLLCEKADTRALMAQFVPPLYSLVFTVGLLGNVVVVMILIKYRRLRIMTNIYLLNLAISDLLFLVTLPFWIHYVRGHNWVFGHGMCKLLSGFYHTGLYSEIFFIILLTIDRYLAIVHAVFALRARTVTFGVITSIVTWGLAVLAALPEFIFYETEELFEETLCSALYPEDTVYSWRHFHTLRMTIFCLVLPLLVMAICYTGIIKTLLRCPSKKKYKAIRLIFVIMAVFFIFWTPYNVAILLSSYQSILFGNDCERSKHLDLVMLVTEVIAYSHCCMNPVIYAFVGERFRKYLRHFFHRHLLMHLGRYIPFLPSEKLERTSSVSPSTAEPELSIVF
Kind of experiment: flow cytometry, IgG 100 nM, cells over-expressing hCCR3. As for the experimental part:
(§1) Cells over-expressing different GPCRs other than CXCR4 and several lines transfected to over-express CXCR4 (R1610-hCXCR4, Cf2Th-hCXCR4 and CHO-hCXCR4) were compared. Cultures were incubated with a test IgG at 100 nM in FACS buffer for 40 min at 4° C. Thereafter, cells were washed twice, stained with anti-human-Fc antibody-PE conjugate (Jackson Immunoresearch Laboratories Inc., West Grove, Pa.), washed twice in FACS buffer and then transferred to FIX buffer. Fluorescence intensities were measured by GUAVA PCA-96 at 425V (in triplicate).
(§2) The expression of GPCRs other than CXCR4 was confirmed using commercially available antibodies (positive controls). For example, a commercial anti-CXCR1 antibody was used as a positive control for confirming the expression of CXCR1 on the CXCR1-transfected CHO cells.
(In general: A flow cytometer gives signals particle by particle.)

In a further experiment the target is T2, hCCR5 (human, UniProt P51681 1-352).
T2 construct: whole, on cells
T2 sequence (P51681 whole entry): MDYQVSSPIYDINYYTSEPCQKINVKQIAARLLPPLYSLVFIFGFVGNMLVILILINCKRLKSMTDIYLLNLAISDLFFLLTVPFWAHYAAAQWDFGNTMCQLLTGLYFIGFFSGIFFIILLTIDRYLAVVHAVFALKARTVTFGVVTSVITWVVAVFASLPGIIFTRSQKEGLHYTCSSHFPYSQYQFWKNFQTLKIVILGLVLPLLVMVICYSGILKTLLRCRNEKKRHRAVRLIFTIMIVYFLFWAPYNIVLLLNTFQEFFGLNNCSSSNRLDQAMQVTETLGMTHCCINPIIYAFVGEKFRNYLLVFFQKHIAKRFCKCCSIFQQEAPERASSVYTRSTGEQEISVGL
Kind of experiment: flow cytometry, IgG 100 nM, cells over-expressing hCCR5. As for the experimental part: as §1, §2

In the next experiment the target is T3, hCCR7 (human, UniProt P32248 25-378).
T3 construct: whole, on cells
T3 sequence (looked up): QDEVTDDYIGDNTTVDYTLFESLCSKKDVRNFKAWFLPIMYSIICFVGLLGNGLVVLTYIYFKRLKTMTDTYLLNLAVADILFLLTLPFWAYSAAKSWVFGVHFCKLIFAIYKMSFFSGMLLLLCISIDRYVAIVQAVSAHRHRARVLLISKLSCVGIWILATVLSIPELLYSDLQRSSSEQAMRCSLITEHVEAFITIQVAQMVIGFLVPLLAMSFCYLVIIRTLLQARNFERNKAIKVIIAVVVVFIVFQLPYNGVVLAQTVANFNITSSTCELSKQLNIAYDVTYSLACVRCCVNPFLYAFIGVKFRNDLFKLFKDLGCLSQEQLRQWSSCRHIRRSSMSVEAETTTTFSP
The experiment is described as follows: flow cytometry, IgG 100 nM, cells over-expressing hCCR7. As for the experimental part:
as §1, §2

The target in the next experiment is T4, hCCR9 (human, UniProt P51686 1-369).
T4 construct: whole, on cells
T4 sequence (looked up): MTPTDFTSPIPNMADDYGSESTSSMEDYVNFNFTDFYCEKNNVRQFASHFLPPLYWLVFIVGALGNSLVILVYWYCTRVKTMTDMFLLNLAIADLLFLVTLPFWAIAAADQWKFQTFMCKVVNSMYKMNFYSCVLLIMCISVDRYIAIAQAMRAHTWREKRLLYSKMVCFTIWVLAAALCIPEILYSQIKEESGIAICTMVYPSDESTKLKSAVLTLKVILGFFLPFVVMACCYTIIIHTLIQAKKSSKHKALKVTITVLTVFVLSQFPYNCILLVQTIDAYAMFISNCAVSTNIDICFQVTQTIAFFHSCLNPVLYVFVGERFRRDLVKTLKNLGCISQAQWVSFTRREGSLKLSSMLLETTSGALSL
The experiment is described as follows: flow cytometry, IgG 100 nM, cells over-expressing hCCR9. As for the experimental part:
as §1

The target of the next experiment is T5, hCCR10 (human, UniProt P46092 1-362).
T5 construct: whole, on cells
T5 sequence (looked up): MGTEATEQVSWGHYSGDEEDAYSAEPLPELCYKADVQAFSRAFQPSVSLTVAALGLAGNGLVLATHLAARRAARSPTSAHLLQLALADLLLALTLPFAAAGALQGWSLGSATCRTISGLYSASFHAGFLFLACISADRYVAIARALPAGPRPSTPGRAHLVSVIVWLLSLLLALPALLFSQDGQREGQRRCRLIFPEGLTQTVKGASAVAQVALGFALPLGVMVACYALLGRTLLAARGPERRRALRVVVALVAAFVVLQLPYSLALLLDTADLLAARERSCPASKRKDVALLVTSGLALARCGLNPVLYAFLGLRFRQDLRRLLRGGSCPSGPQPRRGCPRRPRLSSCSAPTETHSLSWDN
The experiment is described as follows: flow cytometry, IgG 100 nM, cells over-expressing hCCR10. As to the method: as §1, §2

Another experiment has as its target T6, hCXCR3 (human, UniProt P49682 1-368).
T6 construct: whole, on cells
T6 sequence (looked up): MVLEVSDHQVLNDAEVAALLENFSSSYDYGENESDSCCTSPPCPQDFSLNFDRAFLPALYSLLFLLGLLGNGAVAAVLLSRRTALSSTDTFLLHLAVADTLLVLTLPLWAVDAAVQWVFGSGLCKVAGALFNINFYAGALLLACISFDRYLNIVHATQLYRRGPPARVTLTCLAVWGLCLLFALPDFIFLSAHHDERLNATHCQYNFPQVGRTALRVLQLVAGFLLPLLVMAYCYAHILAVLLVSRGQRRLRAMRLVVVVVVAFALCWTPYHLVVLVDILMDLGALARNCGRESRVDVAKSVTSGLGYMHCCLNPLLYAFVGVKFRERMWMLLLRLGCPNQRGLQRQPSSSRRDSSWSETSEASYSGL
Kind of experiment: flow cytometry, IgG 100 nM, cells over-expressing hCXCR3. As to the method:
as §1, §2

Another experiment concerns the target T7, hCXCR6 (human, UniProt O00574 1-342).
T7 construct: whole, on cells
The experiment is described as follows: flow cytometry, IgG 100 nM, cells over-expressing hCXCR6. As to the method: as §1, §2

T7 sequence (O00574 whole entry): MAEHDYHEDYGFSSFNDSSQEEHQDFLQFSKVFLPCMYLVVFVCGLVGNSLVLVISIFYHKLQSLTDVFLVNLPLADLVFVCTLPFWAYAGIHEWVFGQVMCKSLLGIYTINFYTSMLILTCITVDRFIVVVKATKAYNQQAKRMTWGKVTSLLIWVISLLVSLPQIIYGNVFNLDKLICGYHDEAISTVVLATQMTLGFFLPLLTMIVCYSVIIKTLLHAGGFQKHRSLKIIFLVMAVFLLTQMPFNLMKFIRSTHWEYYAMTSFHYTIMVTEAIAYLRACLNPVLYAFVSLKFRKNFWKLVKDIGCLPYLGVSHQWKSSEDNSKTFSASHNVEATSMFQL
Chain of human CXCR4 (P61073 whole entry): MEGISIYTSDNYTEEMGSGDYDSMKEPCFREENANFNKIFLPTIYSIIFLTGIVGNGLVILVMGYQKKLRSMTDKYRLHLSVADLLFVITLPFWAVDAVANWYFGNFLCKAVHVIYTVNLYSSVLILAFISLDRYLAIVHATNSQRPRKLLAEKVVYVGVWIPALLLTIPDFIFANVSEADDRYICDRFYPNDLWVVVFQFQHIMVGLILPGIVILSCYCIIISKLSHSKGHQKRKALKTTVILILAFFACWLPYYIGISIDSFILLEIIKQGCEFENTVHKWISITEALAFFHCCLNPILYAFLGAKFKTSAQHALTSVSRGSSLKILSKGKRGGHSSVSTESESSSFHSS

B1: V62.1-R108H (antibody, human IgG1, V domains shown)
VH: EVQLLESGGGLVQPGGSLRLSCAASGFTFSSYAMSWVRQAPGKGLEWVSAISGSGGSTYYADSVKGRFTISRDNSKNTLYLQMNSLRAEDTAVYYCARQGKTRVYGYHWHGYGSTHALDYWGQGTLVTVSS
VL: EIVLTQSPGTLSLSPGERATLSCRASQSVSSSYLAWYQQKPGQAPRLLIYGASSRATGIPDRFSGSGSGTDFTLTISRLEPEDFAVYYCQQSDYSYPFTFGQGTKVEIKR
notes: Tested as an IgG (human IgG1 format); also called IgG1 V62.1 R108H
With B1, in the experiment with human CXCR4, the “IC50 (nM), inhibition of SDF-1alpha-induced calcium flux” value amounted to 6.8 nM. The MFI is 4 in the experiment with hCCR3; 3 in the experiment with hCCR5; 4 with hCCR7; 3 with hCCR9; 3 in the experiment with hCCR10; 3 with hCXCR3. The MFI with hCXCR6 was found to be 3.

B2: V62.1-R108H-m80 (antibody, human IgG1, V domains shown)
VH: EVQLLESGGGLVQPGGSLRLSCAASGFTISPYSITWVRQAPGKGLEWVSQINSYNGKTYYADSVKGRFTISRDNSKNTLYLQMNSLRAEDTAVYYCARQGKTRVYGYHWHGYGSTHALDYWGQGTLVTVSS
VL: B1 VL
notes: Tested as an IgG (human IgG1 format); also called V62.1-H-m80; V62.1-R108H-m80-Wt
With B2, the “IC50 (nM), inhibition of SDF-1alpha-induced calcium flux” value with human CXCR4 was found to be 7.5 nM. Moreover, the MFI with hCCR3 was 2; with hCCR5, 8; with hCCR9, 8; with hCCR10 it was 10; with hCXCR3 it was 2; in the experiment with hCXCR6, 7.

B3: V62.1 (antibody, human IgG1, V domains shown)
VH: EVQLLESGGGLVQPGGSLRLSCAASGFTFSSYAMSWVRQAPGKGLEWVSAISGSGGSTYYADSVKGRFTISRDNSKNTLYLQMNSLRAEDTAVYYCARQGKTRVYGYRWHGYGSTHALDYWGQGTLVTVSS
VL: B1 VL
notes: Tested as an IgG (human IgG1 format; DP47 heavy and DPK22 kappa light frameworks) made in CHO-3E7 cells; also called IgG V62.1
For the molecule B3, in the experiment with human CXCR4, the “IC50 (nM), inhibition of SDF-1alpha-induced calcium flux” value turned out to be 7.4 nM. In addition, the MFI with hCCR3 was determined as 4; with hCCR5, 4; in the experiment with hCCR7, 3; with hCCR9, 4; with hCCR10, 4; with hCXCR3, 3. In the experiment with hCXCR6, this molecule displayed an MFI of 3.

B4: V62.1-R108H-m47-m38 (antibody, human IgG1, V domains shown)
VH: EVQLLESGGGLVQPGGSLRLSCAASGFTFSSYAMSWVRQAPGKGLEWVSAISGSGGTRYADSVKGRFTISRDNSKNTLYLQMNSLRAEDTAVYYCARQGKTRVYGYHWHGYGSTHALDYWGQGTLVTVSS
VL: EIVLTQSPGTLSLSPGERATLSCRASQSVSSSYLAWYQQKPGQAPRLLIYGASSRATGIPDRFSGSGSGTDFTLTISRLEPEDFAVYYCQQWSSDSVTFGQGTKVEIKR
notes: Tested as an IgG (human IgG1 format); also called V62.1-H-m47-m38; IgG1 62.1-R108H-m47-m38
B4: the “IC50 (nM), inhibition of SDF-1alpha-induced calcium flux” value with human CXCR4 came to 5 nM. Further, the MFI with hCCR5, with hCCR7, with hCCR9, in the experiment with hCCR10, with hCXCR3 and with hCXCR6 was 2 in each case.
